Measured values published in the supplement of paper PMC12636428.

Tested on: Saccharomyces cerevisiae
Test: transcriptional activation domain activity (GFP:mCherry ratio, weighted mean of sorted bins, harmonized to initial dataset scale) (arbitrary fluorescence ratio units); higher = stronger transcriptional activation
Details: beta-estradiol 1 µM; induction time 4 h
Method in brief: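 The activation activity of each tile is the read-weighted mean of bin median fluorescence, averaged across its barcodes and mapped linearly onto the scale of the initial dataset. Tiles were fused to an estradiol-inducible synthetic transcription factor, barcoded, and integrated at URA3 in yeast diploids carrying a GFP reporter. Induction used 1 uM beta-estradiol in SC for 4 hours at 30 °C, after which cells were sorted into 8 GFP:mCherry bins, and any tile with fewer than 50 reads was dropped.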

| Sequence | transcriptional activation domain activity |
| --- | --- |
| MSLRRSCLIFRWHVFMLLLMLFVRTWLVRLLVFLVFVVLMVRLLSLFPPFPLS | 32200 |
| MSLSEWLRMIWVCFGRSTSCTIVRFSFHMRLIHVLIVVVLGTVRRHWLWSFVY | 35500 |
| MSLSFFFFSFFFLFFIIIFGRSRWLCYDGFGFFFFSFFLLMLAVFLFLLTYFT | 50800 |
| MSLVLLLFCLYLRCYSVLAMANGVSVLNAADYPFSVMITKPVMCGGALISLDP | 69000 |
| MSLWISILHTTFLVGYHSIILSLSSPYHYCYLSFLFPIYPFLLGLFVFSLLSS | 56600 |
| MSLYICNLVFSFFFFLFSFFLFLTLIFSSTRADCLWLLQERWYFVLLWNTLPF | 45800 |
| MSMFAMDFIIGHMVLFVLSPFTLVPYIDQLHSTMLFWLRPLLRLLRFYVHLYS | 68200 |
| MSMGIEFPFFTFRFSPSPLLLLLPFPPPFLPPFCLSAFFPSPLSPLPFPFLPS | 51400 |
| MSMLQVQWCYVMLYFDLSTSELLYFYLYLIFYSSFLFFNLWWLLNVDDASAPA | 41500 |
| MSNGFFLGLWVLIKRPFFFFFFHLFVMHGVLGGCWDLLVGFVCLHRGFWFLFW | 70700 |
| MSNGSSFVQCIDTRLCLLYSLVFREHMAFHPIISSFLFLIRLLILLASLFLFF | 48500 |
| MSNLELMRFLTKPDVKLELSVKIDDIYWNCIFSLRYREMYTASLLRYMVFFLR | 52700 |
| MSNTYRFVMEEPAEAGKGQQKKRARLVTACDNCRNKKIKCLRTPVSGTCESCK | 27900 |
| MSNVQTELPFFPSCFVFFRGSFSFFCLVLFPLMAFIIELSILSFRCLFLLFLL | 61300 |
| MSNVYNCHPALLCYLALPCPTHLCLLSSLFPSVVSTVHAFLLLFLALCPISWI | 71400 |
| MSNWLWIFLLLFFAFFCRSFTSCFIRLSVHIYTHCCMCSLGGLLVYLARSLFF | 44200 |
| MSPLDQVAEDDLSKRRKPHTKSRHGCIDCRRRRVKCGEEKPCCRTCVRRGVRC | 44400 |
| MSPLPSPLSFPLFLFFSLSLSNLVCMPHPLLSSLSLSTPPALFFLYLFFLATL | 55100 |
| MSPPCIVLKHLLFFLFSFHRILLQPVRRPSCFHISLYVLVVRLYWFRGILDFC | 38300 |
| MSPPEQSGGAPKHRACDECRARKLACSKEPDGCARCKRESQVCHYSAQKPMGR | < 6570 |
| MSPPTLREVNVSLPRKFDTPDEPWHRYVTIDLLHYVLGYTLFHPFVSCVLVLC | 35200 |

| Sequence | transcriptional activation domain activity |
| --- | --- |
| MSPRAFFPPWFDFVHAFLVYALVARRLRLLFLPTHLAMHCTHLSLSLTLLFLL | 60500 |
| MSPSGAVPSTAQVVPGACVNIVLKADQRTGRQVSGTVRDVLTRGDHHRGIKVR | 41300 |
| MSPSSAVFFFFFFCIALFDSVWLVSFFMVLFFLFDSSLYSLLFFSCLFFFIHS | 50000 |
| MSQCLGTGYPIVCLVLICVRHGAMLDIREKAVEMIFTILLTSTVKVAKKLDKH | 49500 |
| MSQFDFGLLFGQPFFLCSLVLFGLGWFITFIATCTIGSSPHLIWVEIFYNLFL | 58500 |
| MSQSFLFCPFQCLSLYLFPFCLCFCFPTLAFLSRFSYFILVLFSFLPLLAFVA | 18500 |
| MSRCNSSMFMSMFDSLGLFLFVIFIFLFFELHSFWWDLFSLFFVFVWFNFSIS | 41400 |
| MSRKIYCTPAFSTIHLLYLHNFFLIPIYYLQTSLRNILSKLSFCLILSILLLP | 52900 |
| MSRLSIYVALLLLESICICWRGWIAPRHVAMESVQINFKTGRFLVYFMFPIKA | 32000 |
| MSRPSGCRSATSTGRATCSGCRRSSSPARPPCASRRARCSCGCVCASPTSTRR | 12100 |
| MSRQPVRAIFLYDILLFFLSGRSIDFVLIFSTWPFFFSFFLSFSLPPYFYFIL | 71500 |
| MSRVLPEKLPLHLQAACLPQRDLLTALPVVALRCYTDGPQLLRGLVCCLCDMW | 61600 |
| MSRVRLAPEGHMFFFVLIVFIFCFFCLFLFLAGDLKGGWLFFLRFGMGWVFLG | 21600 |
| MSRVYNLFLKAFRYKLPSLYQHIHVILNLPPSMYLEAMFLTLFTLHCPIDVAS | 53400 |
| MSSAASSTGSPRPKRRRRRPARSCEQCRRRKIRCDMGQPCNGCVRARVSMECS | 38300 |
| MSSDDDSAPRTKRGGKPTTKKQQKRAIARACDRCRQKKVKCDGASLAIGAVCQ | 40600 |
| MSSEKSSRASKTPTPTPAPPGDHRKRRRNRTTQSCLNCHASKRMCDRKRPACQ | 52300 |
| MSSGFSWSTCSFFFFFFFFLLLLLLLFFWFFLFGLSWRDSLVFFPFFFFLSLF | 17800 |
| MSSHDGYRTRRTPQACVACRRRKTKCDGARPRCRHCASRHRQCVWPDVAEGAS | 39900 |
| MSSLFFLRSPCFYLYLYHYLVSFLIFMAFCLVCCLPLLFHFWVFCLLLCFRIY | 63600 |
| MSSLFFSFQAVQFWFLGFLGLSWFRLVSTSYNIVDFLSFLSVHHHVLSWLGIP | 63500 |

| Sequence | transcriptional activation domain activity |
| --- | --- |
| MSSLPLFPVLSSSLCFPLPPSLPLSSPPSVSPFPPFSLFPPLPLFSPFPPSIS | 38900 |
| MSSLYFFDLMISWLLCFLAFRGDLFYMVFFFLYHFFFLLCGFWFFFCTDIHFY | 59900 |
| MSSMHKLVTIFTGQGRVLSFFSLCVLRGLYYYSLLLRYLYFTLLVFFLSLFPF | 49100 |
| MSSNFFGASNNAGQGSGTGASAPLFGAPKPADGGAAPAVGGLFGAKPAASGTG | 27300 |
| MSSNYENQAQQESDQGSSSKSQKSRHRASVACATCRERRIRCVVPAGEASCAQ | 43100 |
| MSSPEVNSSQPASSPRKARRYGFACASCKARKVKCSGDQPVCRACRRANESCV | 24300 |
| MSSPKRITVLISGSGTNLQALMDAAGSSRLPNAQITHVISSRSAVKGLERAST | 53800 |
| MSSPNEKMDVDRASPDRRSKSSRNHSTETHRTKRSHRSRSRGGERDKERRDRR | 34300 |
| MSSPTSSLFFVSPPVGCYRYLLFFFFSSFWLLFVFLRSVPFGPTLLLFFFYFN | 42400 |
| MSSSAASGPMGESSKRKAGSEAVAGSSSSSSISRDGKKAKLKPQDEATATGAA | 31400 |
| MSSSDPLRKRDFEDSTRRLACDRCRGQKLRCERITGKTTSPCRRCVKARARCT | 35300 |
| MSSSEDEPRPRKARSKLSPPASPDSRAQSAPAVPSPVKLVRAKPRARAKAASL | 42700 |
| MSSSEPLTEQTAALSVAEGDADGNVPIGPDGKPLSKSAIKKLQKEKEKAEKAA | 39500 |
| MSSSLPSESPCQEPTKRRRKVKTGCRTCKIRRVKCDEGRPACHRCVSTGRVCD | 54000 |
| MSSSPTTGTSQDVQNRTVFTSRRRTAVACTNCRRRKLRCIPARVEEPATGPCA | 35800 |
| MSSTKRPAEEEEPVIHEEDEPGKPDSAAAPAPKRRGRPPGSKNKKTIAAEAAA | 32700 |
| MSSTPNCARQQPNRSESARNRTKDNCAACREKRLKCDKDGGRKTCSSDSQPSS | 37400 |
| MSSVAAAESKPEKKQKKDKSSKSEKKRLREDDAADAERKHKKSKSLASSEVAA | 15100 |
| MSSWDGTQGSSSNGQVRKRRRIALACDSCRARKSRCDGRRPQCSSCAGQGTKC | 43400 |
| MSSWVYKYQLMFVFVSKVESGGRIWNVIINRLLICVLLMQMLMILTMGLQYRF | 49000 |
| MSTAAVNEVTETLAATAISNPTNGAAANEATAASADEGRRLYIGNLAYATTEG | 36000 |

| Sequence | transcriptional activation domain activity |
| --- | --- |
| MSTAGHSRQPDHATVPARSFGGCSTCRRRHIKCDEGRPSCSACRDSGLACGGY | 53000 |
| MSTEEQADGAPSSASDAGLKIWSCVTCRRRKVRCDRRDPCSNCVRAAIDCHYP | 30100 |
| MSTEVKAAHAGKARQKAWKPKVKTGCVTCRNRRVKCDEAKPDCRRCVAAGRKC | 10800 |
| MSTGVSSFLQYVFLFTPYFIFSYFLAVDCWCFSLPLFCLAIPSIFLFLFLFLL | 24900 |
| MSTLHWNMIFLVFFFWVVDVLFAWIMEVGMMVGVHVAYAYGDCGGPVLFMVPF | 71700 |
| MSTNERKKQRFVKSIHKEKKNTACCSSTNVIGTSKLSSPVIAVVVVVVVVCWG | 45100 |
| MSTNSPESTGDHTDTERKDMPRKRSKVSRACDACRRKKVRCDAEFLTTLQKVT | 79400 |
| MSTPFLANLLLIIWPTYYLLALSLHRALFQCTLSDFFSFFFFFFFFLFFLPFF | 52800 |
| MSTPKVVASATRQINAVVVSAGLMQKTVKARVGVQKWNRHIKKHFNRSTNVLV | 53100 |
| MSTQGPAKRRGAQATDKPVKRTRVSRACDQCRIAREKCDGAQPTCSTCSTSRR | 36700 |
| MSTSSIVMCSLFLIVRTSTFLLTFIFPNSLPLMGYRLRVFFVWYVDFYGWIFT | 57600 |
| MSTVPRLRLHLHLHLHLHLRLHLHLQLSTPKPTEDGAEHGTERGTERGTERGT | 49700 |
| MSTWLLRVFFSTCLYIIIWFFFHSFPFLSFFLPCLCCMFFFLACCLVSLSRVL | 35200 |
| MSVFILFVGCFYCMVCLFSPSYMWFFCGVISILFLIFPFLHDFQLYFFFGGGH | 41700 |
| MSVLYIEDTFPSCFIKFKELVVCSRLCMMFPFQYQFASLLLYLILLLAYHLFL | 54300 |
| MSVSSPEDVTSEASGPAATAPAHEPLACVNCRSRKLKCDRQKPVCSRCAKAGG | 46300 |
| MSVVKEENPDTPGGTTVQDVDNRLRQLIQACSPFHMLKNHNLLVLYLLIVPSA | 53700 |
| MSVYLFCGLLIFLGCGGSGWRYGFLSFFRLLLGVYVSFRYQHLIYTAWLMWAY | 69200 |
| MSWIVWSGKHIHMSCNFIFIICPNNMKYMLSVFWRWFYKRSVIWKVWIRLFFI | 47600 |
| MSWLVSISFMFYTFILPFYYYYKHSTTLFIYTYIYISLYIPIWFVYNHPYHLL | 43000 |
